Results reported in publication PMC10681739, “High-throughput data and modeling reveal insights into the mechanisms of cooperative DNA-binding by transcription factor proteins”.

Legend:
[1] = target: RUNX1 (Homo sapiens, UniProt Q01196); assay: gcPBM; 2 nM RUNX1; details: tags: N-terminal GST (pDEST15), kept (PMC6008103); label: surface-attached array probe
[2] = target: T1, ETS1 (Homo sapiens, UniProt P14921); assay: gcPBM; 1 nM ETS1; details: tags: N-terminal GST (pDEST15), kept (PMC6008103); label: surface-attached array probe
T1 sequence: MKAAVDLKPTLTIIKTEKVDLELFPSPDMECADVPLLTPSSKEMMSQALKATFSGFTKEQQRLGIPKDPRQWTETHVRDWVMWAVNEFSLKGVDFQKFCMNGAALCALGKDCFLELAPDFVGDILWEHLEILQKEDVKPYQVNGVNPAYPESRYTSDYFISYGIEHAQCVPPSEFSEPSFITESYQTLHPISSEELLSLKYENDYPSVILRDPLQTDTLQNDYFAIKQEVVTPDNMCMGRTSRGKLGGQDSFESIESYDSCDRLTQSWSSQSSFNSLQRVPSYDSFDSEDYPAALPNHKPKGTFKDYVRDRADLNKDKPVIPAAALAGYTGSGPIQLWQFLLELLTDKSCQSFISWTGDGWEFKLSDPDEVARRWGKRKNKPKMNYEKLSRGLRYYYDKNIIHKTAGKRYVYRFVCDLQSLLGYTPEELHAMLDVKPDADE

Sequence of RUNX1 (Q01196 whole entry): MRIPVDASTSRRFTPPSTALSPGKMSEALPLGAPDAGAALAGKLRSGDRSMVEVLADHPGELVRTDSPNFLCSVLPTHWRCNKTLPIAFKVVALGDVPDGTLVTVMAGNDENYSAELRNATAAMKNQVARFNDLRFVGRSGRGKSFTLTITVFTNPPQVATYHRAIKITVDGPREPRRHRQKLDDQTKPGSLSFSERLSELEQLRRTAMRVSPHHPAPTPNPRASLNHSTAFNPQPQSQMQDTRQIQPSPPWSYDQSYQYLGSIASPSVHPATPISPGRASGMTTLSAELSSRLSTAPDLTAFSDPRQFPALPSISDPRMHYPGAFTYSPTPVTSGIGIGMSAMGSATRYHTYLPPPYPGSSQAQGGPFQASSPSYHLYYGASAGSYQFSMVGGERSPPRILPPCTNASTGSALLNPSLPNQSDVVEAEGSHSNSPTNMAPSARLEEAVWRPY

B1: Table S3 B row 3808 (dsDNA)
DNA 1: GCCCTTCTTGCGGTTTTCATGGCAGGGTGTTAACAT
DNA 2: ATGTTAACACCCTGCCATGAAAACCGCAAGAAGGGC
- binding signal [1]: 60800 PBM fluorescence, median of replicate spots

B2: Table S3 B row 2580 (dsDNA)
DNA 1: GTCGCTGCGGTTTTGGGGTTGGCATGCTGTCCTCTG
DNA 2: CAGAGGACAGCATGCCAACCCCAAAACCGCAGCGAC
- binding signal [1]: 58800 PBM fluorescence, median of replicate spots

B3: Table S3 B row 3820 (dsDNA)
DNA 1: TTTTGCGGTTTTTGATCTGGAAGCCACACAGCCTTA
DNA 2: TAAGGCTGTGTGGCTTCCAGATCAAAAACCGCAAAA
- binding signal [1]: 57800 PBM fluorescence, median of replicate spots

B4: Table S3 B row 3968 (dsDNA)
DNA 1: CCGAGTTGCGGTTTCTCCGTTAGTGCTTACGGGTTG
DNA 2: CAACCCGTAAGCACTAACGGAGAAACCGCAACTCGG
- binding signal [1]: 54300 PBM fluorescence, median of replicate spots

B5: Table S3 B row 2036 (dsDNA)
DNA 1: GATTGCGGTTGGGACTTTCCCTAAGTCATTTGCTGT
DNA 2: ACAGCAAATGACTTAGGGAAAGTCCCAACCGCAATC
- binding signal [1]: 53200 PBM fluorescence, median of replicate spots

B6: Table S3 B row 3447 (dsDNA)
DNA 1: TGATTGCGGTTTCGGTCGCTCTCCCGTGTTTGCCGG
DNA 2: CCGGCAAACACGGGAGAGCGACCGAAACCGCAATCA
- binding signal [1]: 50800 PBM fluorescence, median of replicate spots

B7: Table S3 B row 852 (dsDNA)
DNA 1: CGGCAGCTTGCGGTTAGCCGTTCTTTCAGCCCAGTT
DNA 2: AACTGGGCTGAAAGAACGGCTAACCGCAAGCTGCCG
- binding signal [1]: 48900 PBM fluorescence, median of replicate spots

B8: Table S3 B row 1801 (dsDNA)
DNA 1: ACTCTAACCGCAGTGACGTGGGACCTCCTCGGCAGG
DNA 2: CCTGCCGAGGAGGTCCCACGTCACTGCGGTTAGAGT
- binding signal [1]: 46700 PBM fluorescence, median of replicate spots

B9: Table S3 B row 3235 (dsDNA)
DNA 1: AAGTCAAAACCGCAAACGCTCAGTAAAAAAGACTCT
DNA 2: AGAGTCTTTTTTACTGAGCGTTTGCGGTTTTGACTT
- binding signal [1]: 42400 PBM fluorescence, median of replicate spots

B10: Table S3 B row 2222 (dsDNA)
DNA 1: CAGAAACCGCAGAACTGAGCTGACGACCCGGGAGTG
DNA 2: CACTCCCGGGTCGTCAGCTCAGTTCTGCGGTTTCTG
- binding signal [1]: 42300 PBM fluorescence, median of replicate spots

B11: Table S3 B row 943 (dsDNA)
DNA 1: TGTTTGCGGTTTAGACCCCAAAGATTCATGTTGGTA
DNA 2: TACCAACATGAATCTTTGGGGTCTAAACCGCAAACA
- binding signal [1]: 38700 PBM fluorescence, median of replicate spots

B12: Table S3 B row 3344 (dsDNA)
DNA 1: CCGAAGCCTGCGGTTTCATGTGGGAGCAAGCGGCCT
DNA 2: AGGCCGCTTGCTCCCACATGAAACCGCAGGCTTCGG
- binding signal [1]: 37500 PBM fluorescence, median of replicate spots

B13: Table S3 B row 1798 (dsDNA)
DNA 1: CTCTCTTGCGGTTTGCAGCCAGATCACCTCCCATAC
DNA 2: GTATGGGAGGTGATCTGGCTGCAAACCGCAAGAGAG
- binding signal [1]: 37400 PBM fluorescence, median of replicate spots

B14: Table S3 B row 1477 (dsDNA)
DNA 1: TTCTTTGGTCAACCGCAAGCCTCTGCCGCGTCTCGC
DNA 2: GCGAGACGCGGCAGAGGCTTGCGGTTGACCAAAGAA
- binding signal [1]: 37300 PBM fluorescence, median of replicate spots

B15: Table S3 B row 584 (dsDNA)
DNA 1: GTCCTCTTTGTGGTTTCCATTTGCTTTGTGAAAGAG
DNA 2: CTCTTTCACAAAGCAAATGGAAACCACAAAGAGGAC
- binding signal [1]: 34700 PBM fluorescence, median of replicate spots

B16: Table S3 B row 272 (dsDNA)
DNA 1: ACGAGGTTGCGGTTTCTCCACCTCCTCAACAACCTG
DNA 2: CAGGTTGTTGAGGAGGTGGAGAAACCGCAACCTCGT
- binding signal [1]: 32700 PBM fluorescence, median of replicate spots

B17: Table S3 B row 3657 (dsDNA)
DNA 1: CCACCCAAAACCACAACCATTTGCCCCATCACTTTG
DNA 2: CAAAGTGATGGGGCAAATGGTTGTGGTTTTGGGTGG
- binding signal [1]: 31700 PBM fluorescence, median of replicate spots

B18: Table S3 B row 1191 (dsDNA)
DNA 1: CTCTTGCGGTCAGGTCACGCCGCCTGAAGCCGCCCC
DNA 2: GGGGCGGCTTCAGGCGGCGTGACCTGACCGCAAGAG
- binding signal [1]: 30900 PBM fluorescence, median of replicate spots

B19: Table S3 B row 2218 (dsDNA)
DNA 1: TCCTTGCGGTTTGCTTTCGCCGTCTCCGAACCGAGG
DNA 2: CCTCGGTTCGGAGACGGCGAAAGCAAACCGCAAGGA
- binding signal [1]: 30700 PBM fluorescence, median of replicate spots

B20: Table S3 B row 474 (dsDNA)
DNA 1: TCGTATTTGCGGTCAGCCTCTTACGTAATGTGCTTG
DNA 2: CAAGCACATTACGTAAGAGGCTGACCGCAAATACGA
- binding signal [1]: 29200 PBM fluorescence, median of replicate spots

B21: Table S3 B row 3420 (dsDNA)
DNA 1: GGTTTGTGGTTTCCCCTTACTGTCTCCACTGCCTTC
DNA 2: GAAGGCAGTGGAGACAGTAAGGGGAAACCACAAACC
- binding signal [1]: 28800 PBM fluorescence, median of replicate spots

B22: Table S3 B row 2604 (dsDNA)
DNA 1: CGGGTTAAACCGCAGCCGCGCCCACACTTTCGGGGT
DNA 2: ACCCCGAAAGTGTGGGCGCGGCTGCGGTTTAACCCG
- binding signal [1]: 28100 PBM fluorescence, median of replicate spots

B23: Table S3 B row 1072 (dsDNA)
DNA 1: CTTCTTCTTGCGGTTTCAATCACAGTAAACAGACGT
DNA 2: ACGTCTGTTTACTGTGATTGAAACCGCAAGAAGAAG
- binding signal [1]: 27500 PBM fluorescence, median of replicate spots

B24: Table S3 B row 3965 (dsDNA)
DNA 1: GGAGAAACCGCAACTCGGAACTACGGGAACGGAGGA
DNA 2: TCCTCCGTTCCCGTAGTTCCGAGTTGCGGTTTCTCC
- binding signal [1]: 26700 PBM fluorescence, median of replicate spots

B25: Table S3 B row 3458 (dsDNA)
DNA 1: CTGATTGTGGTTTTGATTTGCAATTCCCTGATGATT
DNA 2: AATCATCAGGGAATTGCAAATCAAAACCACAATCAG
- binding signal [1]: 25900 PBM fluorescence, median of replicate spots

B26: Table S3 B row 1506 (dsDNA)
DNA 1: GTTCCTGGTTTGTGGTTATGATTTGCTGTTTGCCTT
DNA 2: AAGGCAAACAGCAAATCATAACCACAAACCAGGAAC
- binding signal [1]: 24200 PBM fluorescence, median of replicate spots

B27: Table S3 B row 2934 (dsDNA)
DNA 1: TTTTTGTGGTTTAGCCCTCAGAGCTCCCTGCCAGAG
DNA 2: CTCTGGCAGGGAGCTCTGAGGGCTAAACCACAAAAA
- binding signal [1]: 23200 PBM fluorescence, median of replicate spots

B28: Table S3 B row 3806 (dsDNA)
DNA 1: TCAGTCTTGTGGTTAAGGGAGGCAGGGTACTGTTGG
DNA 2: CCAACAGTACCCTGCCTCCCTTAACCACAAGACTGA
- binding signal [1]: 20500 PBM fluorescence, median of replicate spots

B29: Table S3 B row 278 (dsDNA)
DNA 1: TAAGTGTTGTGGTTTTTTAGTTTACTGTTCAGTTGC
DNA 2: GCAACTGAACAGTAAACTAAAAAACCACAACACTTA
- binding signal [1]: 20300 PBM fluorescence, median of replicate spots

B30: Table S2 B row 3602 (dsDNA)
DNA 1: TGTCGGGCGGATGTGTACCGGCGTTAATATAGTAAG
DNA 2: CTTACTATATTAACGCCGGTACACATCCGCCCGACA
- binding signal [2]: 2800 PBM fluorescence, median of replicate spots

B31: Table S2 B row 1042 (dsDNA)
DNA 1: GGTCCGGATGTATAAAGCGCGGCCCCCTGGGGGGAG
DNA 2: CTCCCCCCAGGGGGCCGCGCTTTATACATCCGGACC
- binding signal [2]: 2790 PBM fluorescence, median of replicate spots

B32: Table S2 B row 159 (dsDNA)
DNA 1: GTAAAAGAGGAAGTAACACCTCCTTGACGTTGAGAC
DNA 2: GTCTCAACGTCAAGGAGGTGTTACTTCCTCTTTTAC
- binding signal [2]: 2720 PBM fluorescence, median of replicate spots
